We go through one molecule from EP4806514A2 (Lepu Biopharma Co., Ltd., dated 2025).

Holding throughout (assay): ELISA, antigen coated at 1 ug/mL
In general terms: ELISA stands for enzyme-linked immunosorbent assay.

Assay [1] has as its target T1, human CDH16 protein (hCDH16-his, Novoprotein, Cat. No. CJ16) (human, UniProt O75309 19-786).
T1 construct: Bought; also called human CDH16-his
T1 sequence (looked up): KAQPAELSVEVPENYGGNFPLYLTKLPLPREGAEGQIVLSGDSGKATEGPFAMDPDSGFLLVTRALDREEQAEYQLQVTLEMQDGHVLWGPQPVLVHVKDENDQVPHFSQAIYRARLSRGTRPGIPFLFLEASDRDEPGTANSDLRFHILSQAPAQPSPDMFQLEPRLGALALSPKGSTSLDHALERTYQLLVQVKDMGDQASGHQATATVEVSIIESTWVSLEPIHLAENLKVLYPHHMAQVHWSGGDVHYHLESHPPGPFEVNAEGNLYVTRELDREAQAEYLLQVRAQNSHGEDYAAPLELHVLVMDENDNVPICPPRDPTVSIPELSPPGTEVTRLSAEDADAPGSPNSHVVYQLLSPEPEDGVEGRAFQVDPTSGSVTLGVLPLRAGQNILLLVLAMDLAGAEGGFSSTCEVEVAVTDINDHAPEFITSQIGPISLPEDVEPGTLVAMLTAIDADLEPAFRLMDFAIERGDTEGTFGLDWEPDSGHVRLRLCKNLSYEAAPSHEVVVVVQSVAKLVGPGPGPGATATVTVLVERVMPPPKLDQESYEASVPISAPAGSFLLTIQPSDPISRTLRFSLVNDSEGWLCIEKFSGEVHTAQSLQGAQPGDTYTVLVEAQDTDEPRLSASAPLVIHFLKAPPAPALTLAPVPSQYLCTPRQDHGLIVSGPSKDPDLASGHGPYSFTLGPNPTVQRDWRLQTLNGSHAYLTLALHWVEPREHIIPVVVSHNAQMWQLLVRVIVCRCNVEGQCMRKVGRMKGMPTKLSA

The target of assay [2] is T2, human CDH9-his (Acro bio, Cat. No. CA9-H52H6) (human, UniProt Q9ULB4 54-615).
T2 construct: Bought; also called human CDH9 protein
T2 sequence (looked up): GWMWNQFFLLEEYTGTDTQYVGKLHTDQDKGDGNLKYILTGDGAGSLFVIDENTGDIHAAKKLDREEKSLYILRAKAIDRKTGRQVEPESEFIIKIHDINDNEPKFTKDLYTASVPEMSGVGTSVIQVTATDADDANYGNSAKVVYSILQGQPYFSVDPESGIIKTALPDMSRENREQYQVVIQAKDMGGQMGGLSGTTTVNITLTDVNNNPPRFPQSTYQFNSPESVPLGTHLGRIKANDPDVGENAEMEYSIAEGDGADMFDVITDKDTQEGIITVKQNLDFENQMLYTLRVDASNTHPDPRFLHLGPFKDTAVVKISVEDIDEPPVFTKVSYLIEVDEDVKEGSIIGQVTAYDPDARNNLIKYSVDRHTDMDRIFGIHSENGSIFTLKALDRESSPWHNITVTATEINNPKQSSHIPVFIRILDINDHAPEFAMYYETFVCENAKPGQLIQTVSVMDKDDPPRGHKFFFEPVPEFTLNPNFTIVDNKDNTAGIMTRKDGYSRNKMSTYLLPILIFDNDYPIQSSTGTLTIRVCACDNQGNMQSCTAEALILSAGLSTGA

Assay [3] deals with T3, rat CDH17-his (Sino bio, Cat. No. 80283-R08H) (rat, UniProt P55281 22-786).
T3 construct: Bought; also called rat CDH17 protein
T3 sequence (looked up): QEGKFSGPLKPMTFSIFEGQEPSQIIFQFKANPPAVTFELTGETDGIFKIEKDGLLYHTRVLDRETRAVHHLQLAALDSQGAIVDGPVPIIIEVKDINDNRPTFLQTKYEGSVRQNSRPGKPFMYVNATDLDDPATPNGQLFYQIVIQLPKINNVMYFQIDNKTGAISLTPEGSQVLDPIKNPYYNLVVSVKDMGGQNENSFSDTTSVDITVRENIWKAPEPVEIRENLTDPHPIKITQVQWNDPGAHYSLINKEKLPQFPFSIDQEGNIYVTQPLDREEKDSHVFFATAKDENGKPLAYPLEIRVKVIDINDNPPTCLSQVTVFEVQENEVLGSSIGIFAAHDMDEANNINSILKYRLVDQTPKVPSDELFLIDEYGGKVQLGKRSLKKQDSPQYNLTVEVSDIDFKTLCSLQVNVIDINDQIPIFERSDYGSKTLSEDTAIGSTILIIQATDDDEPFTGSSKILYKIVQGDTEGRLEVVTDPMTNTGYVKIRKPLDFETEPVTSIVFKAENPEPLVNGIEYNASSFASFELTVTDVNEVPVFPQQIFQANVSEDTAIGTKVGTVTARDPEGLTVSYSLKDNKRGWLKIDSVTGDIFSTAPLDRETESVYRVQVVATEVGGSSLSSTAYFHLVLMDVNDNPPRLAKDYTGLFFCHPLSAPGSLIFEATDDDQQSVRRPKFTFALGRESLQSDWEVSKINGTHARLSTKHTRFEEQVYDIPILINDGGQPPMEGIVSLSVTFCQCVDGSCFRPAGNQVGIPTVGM

Assay [4] has as its target T4, mouse CDH17-his (Kactus, Cat. No. CDH-MM117) (mouse, UniProt Q9R100 23-786, limits assumed).
T4 construct: Bought; also called mouse CDH17 protein
T4 sequence (looked up): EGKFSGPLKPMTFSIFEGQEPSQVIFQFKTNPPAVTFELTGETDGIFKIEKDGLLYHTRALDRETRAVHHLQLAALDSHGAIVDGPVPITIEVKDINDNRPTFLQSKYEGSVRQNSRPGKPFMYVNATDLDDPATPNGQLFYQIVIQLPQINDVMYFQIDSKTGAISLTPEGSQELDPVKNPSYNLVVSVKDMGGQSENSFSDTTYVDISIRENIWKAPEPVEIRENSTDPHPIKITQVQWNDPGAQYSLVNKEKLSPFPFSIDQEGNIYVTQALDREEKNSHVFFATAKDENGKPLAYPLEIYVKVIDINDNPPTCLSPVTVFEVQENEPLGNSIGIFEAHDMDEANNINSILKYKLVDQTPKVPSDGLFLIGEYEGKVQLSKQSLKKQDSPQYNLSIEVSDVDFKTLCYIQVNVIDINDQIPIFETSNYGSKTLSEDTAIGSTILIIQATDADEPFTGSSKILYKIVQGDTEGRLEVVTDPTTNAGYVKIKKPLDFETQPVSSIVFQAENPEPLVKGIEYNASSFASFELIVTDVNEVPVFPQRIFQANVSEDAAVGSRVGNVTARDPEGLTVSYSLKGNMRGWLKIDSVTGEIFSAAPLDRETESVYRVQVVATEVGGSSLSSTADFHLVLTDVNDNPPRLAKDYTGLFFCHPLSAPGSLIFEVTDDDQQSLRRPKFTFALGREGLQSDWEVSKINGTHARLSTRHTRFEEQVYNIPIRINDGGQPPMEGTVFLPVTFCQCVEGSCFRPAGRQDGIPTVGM

B1: 29H8D3-z12 (antibody, V domains shown)
VH: QVQLVQSGAEVKKPGASVKVSCKASGYTFTDHTIHWMRQRPGQGLEWIGYIYPRDGYTKYNEKFKDRATLTADTSTSTAYMELRSLRSDDTAVYYCARFYYGYWYFDVWGQGTTVTVSS
VL: DIVMTQSPLSLPVTPGEPASISCRSSKSLLRSNGNTYLYWFLQKPGQSPQVLIYRMSNLASGVPDRFSGSGSGTDFTLKISRVEAEDVGVYYCMQHLEYPFTFGQGTKLEIK
notes: Humanized, human IgG1 constant region; also called 29H8D3-z12 mAb
For the molecule B1, the binding result in assay [1], in assay [2], in assay [3] and in assay [4] was “no binding (tested: titrated from 50 nM)” throughout.
